Here are results for 8 molecules from patent US20230050972A1 (MOMENTA PHARMACEUTICALS, published 2023).

Experiment [1] addresses T1, recombinant human α11β1 (human, UniProt Q9UKX5 23-1141; P05556 21-728).
T1 construct: Coated in ELISA; ELISA and SPR material treated as one molecule; also called HIS-tagged human α11β1; integrin alpha 11 beta 1
Description: SPR, HIS-tagged human α11β1 captured by anti-HIS, antibody as analyte, single-cycle kinetics. How it is done: (§1) The affinity of antibodies for human α11β1 was measured by surface plasmon resonance assay (SPR). Affinity was measured at pH 7.6 and 25° C. with a Biacore T200 instrument. Anti-HIS antibody was immobilized on the SPR sensor surface using EDC/NHS covalent attachment. HIS-tagged human α11β1 was captured on the sensor surface and a single-cycle kinetics assay was used. Increasing concentrations of test antibody were injected in series over the sensor-bound α11β1. Dissociation was monitored for 1000 seconds. A sensor surface with only anti-HIS antibody and a series of blank injections were used to double-reference subtract the data. A 1:1 Langmuir model was fit to the data to estimate the kinetic association and dissociation constants. The affinity (equilibrium dissociation constant) of the interaction was calculated by dividing the kinetic dissociation constant by the kinetic association constant. Between injection cycles α11β1 and bound antibody were removed with an injection of 10 mM glycine at pH 1.5.
The binding affinity of antibodies for the α11β1 Headpiece and α11β1 I Domain as measured by SPR is shown in FIG. 10A and FIG. 10B, respectively.
On the technique in general: SPR reads the build-up and loss of mass on a sensor chip optically.

Experiment [2] deals with T2, human α11β1 expressed on the surface of CHO-K1 cells (human, UniProt Q9UKX5 23-1188). Briefly: FACS titration on Human CHO-α11 cells. How it is done: (§2) 200,000 cells (wild-type CHO-K1 cells or CHO-K1 cells expressing human α11) were incubated with each antibody at desired concentrations in FACS buffer for 30 min at 4° C. Then, the cells were washed with FACS buffer and incubated with secondary antibody at 1:100 dilution for 30 minutes at 4° C. Cells were then washed and fixed with 1% PFA in PBS for 20 minutes at room temperature; washed again and read on a cytometer in FACS buffer.
T2 sequence (Q9UKX5 23-1188): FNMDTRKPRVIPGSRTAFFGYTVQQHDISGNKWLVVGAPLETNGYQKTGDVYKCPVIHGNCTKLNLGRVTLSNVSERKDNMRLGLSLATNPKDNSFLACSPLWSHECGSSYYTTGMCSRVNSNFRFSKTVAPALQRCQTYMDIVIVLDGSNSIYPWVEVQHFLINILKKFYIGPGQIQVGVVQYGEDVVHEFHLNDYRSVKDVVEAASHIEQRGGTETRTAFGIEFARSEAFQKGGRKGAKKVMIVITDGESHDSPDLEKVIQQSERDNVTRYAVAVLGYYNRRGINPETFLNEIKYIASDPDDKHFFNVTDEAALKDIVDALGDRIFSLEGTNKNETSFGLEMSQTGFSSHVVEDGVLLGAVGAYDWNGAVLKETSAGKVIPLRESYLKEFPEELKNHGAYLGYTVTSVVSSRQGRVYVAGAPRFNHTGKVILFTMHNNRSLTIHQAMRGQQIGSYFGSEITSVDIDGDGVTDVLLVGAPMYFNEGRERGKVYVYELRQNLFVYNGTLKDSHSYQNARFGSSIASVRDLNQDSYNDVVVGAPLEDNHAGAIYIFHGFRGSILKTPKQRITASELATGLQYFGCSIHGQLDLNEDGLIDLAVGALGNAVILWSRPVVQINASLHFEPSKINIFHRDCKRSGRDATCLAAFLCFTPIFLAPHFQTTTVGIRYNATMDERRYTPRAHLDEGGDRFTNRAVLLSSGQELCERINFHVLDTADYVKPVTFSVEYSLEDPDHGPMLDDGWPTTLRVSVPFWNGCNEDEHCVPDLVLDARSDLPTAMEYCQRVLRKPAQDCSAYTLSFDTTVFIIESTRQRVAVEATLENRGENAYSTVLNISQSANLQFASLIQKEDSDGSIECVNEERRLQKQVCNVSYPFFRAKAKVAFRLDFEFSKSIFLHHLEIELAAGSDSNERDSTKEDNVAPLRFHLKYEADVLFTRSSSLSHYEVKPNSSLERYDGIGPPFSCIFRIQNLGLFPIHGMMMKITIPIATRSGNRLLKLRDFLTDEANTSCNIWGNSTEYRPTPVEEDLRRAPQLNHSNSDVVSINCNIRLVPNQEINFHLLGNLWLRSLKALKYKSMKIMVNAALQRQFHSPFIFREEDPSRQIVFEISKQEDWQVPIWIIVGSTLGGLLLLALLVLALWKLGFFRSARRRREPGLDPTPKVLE

The target of experiment [3] is Mouse CHO-α11 (mouse, UniProt P61622). Description: FACS titration on Mouse CHO-α11 cells.
Experiment [4] addresses T3, in-house generated I domain of α11β1 (human, UniProt Q9UKX5 159-349, limits assumed).
T3 construct: domain: I domain; also called human α11β1 I domain; α11β1 I Domain
T3 sequence (looked up): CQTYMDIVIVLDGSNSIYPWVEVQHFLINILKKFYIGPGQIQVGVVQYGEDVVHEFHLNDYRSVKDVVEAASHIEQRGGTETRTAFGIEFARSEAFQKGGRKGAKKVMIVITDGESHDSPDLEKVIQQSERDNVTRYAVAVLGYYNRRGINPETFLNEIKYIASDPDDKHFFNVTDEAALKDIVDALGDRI
Briefly: SPR, single-cycle injections of 33, 100 and 300 nM over the a11b1 I Domain.

Experiment [5] deals with T4, α11β1 on human myofibroblasts (MF) (human, UniProt Q9UKX5 23-1188; P05556 21-798).
T4 construct: whole, on cells
Description: FACS titration on human myofibroblasts. The method, then:
Human Pulmonary Fibroblasts (ScienCell) were cultured in complete Fibroblast Growth Medium (ScienCell) until 80% confluent in T-150 flasks. Cells were washed and harvested using Accutase. Cells were seeded into T-150 flasks at 7,500 cells/cm² in complete FGF and cultured for 72 hours. Cells were then washed and starved in serum reduced medium for 24 hours. After starvation, cells were treated with TGFβ-1 (R&D Systems) for 72 hours. Cells were harvested using Accutase and seeded in 96-well conical bottom plates. Cells were blocked with Heat Inactived Fetal Bovine Serum (Gibco) for 30 minutes at 4° C. Cells were then incubated with anti-α11 antibodies at the doses described in each figure for 30 minutes at 4° C. A human anti-α11 antibody (Creative BioLabs) was included as a positive control as well as the appropriate IgG isotype negative controls. Cells were washed twice and incubated with PE conjugated secondary antibodies specific to the IgG class of the anti-α11 antibodies being tested for 30 minutes at 4° C. Cells were washed twice and fixed in 1% PFA for 30 minutes. Cells were acquired on a FACS Verse […]. Data were analyzed by gating on single cells and determining the geometric Mean Fluorescence Intensity (gMFI) in the PE channel for each sample.

Experiment [6] has as its target T1, recombinant human α11β1. Description: SPR (Biacore T200), HIS-tagged human α11β1 captured on anti-HIS, single-cycle kinetics, 1:1 Langmuir fit. The method, then:
as §1

For experiment [7], the target named is T2, human α11β1 expressed on the surface of …. Description: FACS on CHO-K1 hu α11β1 cells, estimated EC50. The method, then:
as §2
Binding EC₅₀ was estimated using data from Fluorescence-activated cell sorting (FACS) performed with CHO-K1 hu α11β1 cells. Four out of six mAbs tested had EC₅₀ results in the low nanomolar range (8-P20, 8-G15, 8-J17, 8-l14), while the remaining two mAbs were not as potent (9-G05 and 9-E16; both I domain binders).

In experiment [8] the target is T5, recombinant mouse α11β1 (mouse, UniProt P61622 23-1141; P09055 21-728, limits assumed).
T5 construct: also called murine α11β1
T5 sequence (P61622 23-1141 limits assumed, chain 1 of 2): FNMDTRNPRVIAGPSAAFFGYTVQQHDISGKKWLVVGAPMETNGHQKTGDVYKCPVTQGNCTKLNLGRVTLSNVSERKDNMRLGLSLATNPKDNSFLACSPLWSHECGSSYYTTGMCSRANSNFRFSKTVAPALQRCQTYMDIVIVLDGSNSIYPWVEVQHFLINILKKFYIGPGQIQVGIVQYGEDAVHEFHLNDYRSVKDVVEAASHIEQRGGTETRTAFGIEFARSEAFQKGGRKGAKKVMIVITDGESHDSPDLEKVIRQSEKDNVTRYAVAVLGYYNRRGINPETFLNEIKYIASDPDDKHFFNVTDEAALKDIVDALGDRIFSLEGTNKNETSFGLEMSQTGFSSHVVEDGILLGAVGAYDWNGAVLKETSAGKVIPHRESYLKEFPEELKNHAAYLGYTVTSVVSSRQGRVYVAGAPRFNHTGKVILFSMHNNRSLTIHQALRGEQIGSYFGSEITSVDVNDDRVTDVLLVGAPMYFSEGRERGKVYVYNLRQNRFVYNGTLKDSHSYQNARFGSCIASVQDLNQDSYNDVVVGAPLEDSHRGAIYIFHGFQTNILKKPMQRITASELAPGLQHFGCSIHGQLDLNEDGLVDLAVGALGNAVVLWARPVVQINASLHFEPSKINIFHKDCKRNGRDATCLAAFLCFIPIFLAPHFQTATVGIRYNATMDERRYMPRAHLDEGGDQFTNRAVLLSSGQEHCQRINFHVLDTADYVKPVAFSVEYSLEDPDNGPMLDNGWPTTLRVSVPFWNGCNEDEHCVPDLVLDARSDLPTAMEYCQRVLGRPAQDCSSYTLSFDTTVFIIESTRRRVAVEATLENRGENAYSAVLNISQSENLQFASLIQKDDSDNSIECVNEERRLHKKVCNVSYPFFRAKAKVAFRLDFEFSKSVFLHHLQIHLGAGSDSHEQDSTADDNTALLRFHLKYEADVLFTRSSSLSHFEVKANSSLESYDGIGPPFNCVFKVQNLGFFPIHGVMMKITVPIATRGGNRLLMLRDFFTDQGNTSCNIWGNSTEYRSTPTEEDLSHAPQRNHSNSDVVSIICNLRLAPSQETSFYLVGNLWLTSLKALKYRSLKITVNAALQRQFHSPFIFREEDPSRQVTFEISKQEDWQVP
T5 sequence (P09055 21-728 limits assumed, chain 2 of 2): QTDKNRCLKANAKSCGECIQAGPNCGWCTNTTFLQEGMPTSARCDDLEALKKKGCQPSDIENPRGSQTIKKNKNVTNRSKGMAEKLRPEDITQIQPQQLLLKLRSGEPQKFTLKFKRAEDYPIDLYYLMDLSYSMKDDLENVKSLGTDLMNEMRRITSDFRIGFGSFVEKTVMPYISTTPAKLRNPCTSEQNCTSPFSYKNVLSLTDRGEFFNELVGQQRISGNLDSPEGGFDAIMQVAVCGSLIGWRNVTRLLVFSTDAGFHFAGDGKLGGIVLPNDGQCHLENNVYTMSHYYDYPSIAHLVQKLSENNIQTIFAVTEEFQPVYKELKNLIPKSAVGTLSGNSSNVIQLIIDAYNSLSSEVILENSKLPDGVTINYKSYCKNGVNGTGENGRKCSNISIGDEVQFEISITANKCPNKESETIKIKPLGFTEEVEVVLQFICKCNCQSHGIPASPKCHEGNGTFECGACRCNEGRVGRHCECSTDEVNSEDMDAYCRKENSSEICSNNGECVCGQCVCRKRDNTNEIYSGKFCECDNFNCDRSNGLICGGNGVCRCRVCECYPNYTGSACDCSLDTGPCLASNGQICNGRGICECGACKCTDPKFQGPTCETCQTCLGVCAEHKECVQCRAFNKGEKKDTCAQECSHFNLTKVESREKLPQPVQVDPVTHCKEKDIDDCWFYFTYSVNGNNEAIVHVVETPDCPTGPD
Description: ELISA, plate coated with recombinant mouse α11β1. How it is done:
(§3) 0.25 μg/mL of target antigen (recombinant human or mouse α11β1) was plated in a 96-well plate over night at 4° C. Plates were washed (PBS with 0.1% Tween-20), blocked (PBS with 2% BSA and 0.05% Tween-20) for 1 hour at room temperature and incubated with a range of antibody concentrations for 1 hour at room temperature. Subsequently, plates were washed and incubated with biotinylated anti-rabbit/mouse/human IgG in a 1:1000 dilution buffer and incubated for 1 hour at room temperature. After washing the plates, Streptavidin HRP was added at 1:200 in dilution buffer and incubated for 1 hour at room temperature. Ultra TMB ELISA substrate solution was added and the plates incubated for 5 minutes on a plate shaker. The reaction was stopped by adding stop solution to each well and plates were read at 450 nm.
Background: An ELISA detects its analyte on a solid surface through an enzyme-linked reagent.

Experiment [9] concerns the target T1, recombinant human α11β1. Briefly: ELISA, plate coated with recombinant human α11β1. The method, then: as §3
The target in experiment [10] is T3, in-house generated I domain of α11β1. Briefly: ELISA on the human α11β1 I domain.
For experiment [11] the target is unchanged. Description: ELISA on the human α11β1 I domain. The source holds these as a separate data set.

Values joined by “and” are separate entries in the source; they are usually repeats but may differ in a detail not shown here. Equal values may be shown once.

T1 sequence (Q9UKX5 23-1141 limits assumed, chain 1 of 2): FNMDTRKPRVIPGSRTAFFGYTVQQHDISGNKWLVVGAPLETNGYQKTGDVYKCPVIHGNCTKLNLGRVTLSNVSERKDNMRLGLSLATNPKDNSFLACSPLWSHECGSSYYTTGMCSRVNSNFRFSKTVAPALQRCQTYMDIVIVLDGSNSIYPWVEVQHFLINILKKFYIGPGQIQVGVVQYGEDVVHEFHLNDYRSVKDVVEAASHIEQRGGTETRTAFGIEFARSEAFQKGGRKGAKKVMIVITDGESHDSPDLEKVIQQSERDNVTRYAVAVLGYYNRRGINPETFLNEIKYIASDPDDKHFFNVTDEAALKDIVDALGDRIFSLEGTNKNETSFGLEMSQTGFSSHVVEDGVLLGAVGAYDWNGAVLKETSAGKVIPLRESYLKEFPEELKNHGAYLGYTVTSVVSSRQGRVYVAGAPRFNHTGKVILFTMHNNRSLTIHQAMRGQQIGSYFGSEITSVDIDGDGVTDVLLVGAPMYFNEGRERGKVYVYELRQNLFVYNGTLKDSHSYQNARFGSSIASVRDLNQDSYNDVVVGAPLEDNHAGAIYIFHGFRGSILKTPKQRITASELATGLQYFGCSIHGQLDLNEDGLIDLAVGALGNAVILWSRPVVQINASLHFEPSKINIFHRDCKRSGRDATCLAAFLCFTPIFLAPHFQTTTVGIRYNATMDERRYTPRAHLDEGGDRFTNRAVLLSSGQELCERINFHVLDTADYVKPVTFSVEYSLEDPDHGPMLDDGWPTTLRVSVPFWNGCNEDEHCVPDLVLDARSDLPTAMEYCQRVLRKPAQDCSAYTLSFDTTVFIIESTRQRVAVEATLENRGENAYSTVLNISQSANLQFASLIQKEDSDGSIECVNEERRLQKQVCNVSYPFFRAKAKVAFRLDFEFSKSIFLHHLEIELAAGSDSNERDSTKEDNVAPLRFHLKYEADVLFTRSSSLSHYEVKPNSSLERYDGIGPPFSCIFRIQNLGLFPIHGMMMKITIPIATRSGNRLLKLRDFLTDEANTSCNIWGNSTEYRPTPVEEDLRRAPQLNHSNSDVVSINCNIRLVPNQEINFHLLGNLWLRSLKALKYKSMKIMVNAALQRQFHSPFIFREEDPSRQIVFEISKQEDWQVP
T1 sequence (P05556 21-728 limits assumed, chain 2 of 2): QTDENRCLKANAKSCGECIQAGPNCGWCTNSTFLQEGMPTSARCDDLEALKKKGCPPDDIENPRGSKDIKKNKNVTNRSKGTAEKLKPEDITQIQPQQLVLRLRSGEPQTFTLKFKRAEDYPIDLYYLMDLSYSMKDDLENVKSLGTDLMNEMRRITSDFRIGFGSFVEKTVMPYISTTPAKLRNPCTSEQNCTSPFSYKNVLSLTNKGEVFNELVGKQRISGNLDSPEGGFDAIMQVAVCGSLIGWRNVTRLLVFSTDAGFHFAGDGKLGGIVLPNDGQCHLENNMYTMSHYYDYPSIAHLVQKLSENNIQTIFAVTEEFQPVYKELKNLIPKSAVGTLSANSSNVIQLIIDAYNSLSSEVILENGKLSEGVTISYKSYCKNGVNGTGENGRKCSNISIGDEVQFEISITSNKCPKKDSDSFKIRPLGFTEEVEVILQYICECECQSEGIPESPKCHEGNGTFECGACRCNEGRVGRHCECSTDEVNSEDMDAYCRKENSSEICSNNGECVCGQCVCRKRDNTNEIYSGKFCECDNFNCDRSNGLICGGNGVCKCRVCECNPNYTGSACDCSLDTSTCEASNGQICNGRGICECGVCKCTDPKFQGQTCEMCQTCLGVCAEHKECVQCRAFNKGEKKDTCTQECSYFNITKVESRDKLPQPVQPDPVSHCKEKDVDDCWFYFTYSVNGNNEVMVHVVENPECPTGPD

B1: 1994_01_C07 (antibody, V domains shown)
VH: QVQLVQSGAEVKKPGASVKVSCKASGYTFTSYGISWVRQAPGQGLEWMGWISAYNGNTNYAQKLQGRVTMTTDTSTSTAYMELRSLRSDDTAAYYCARVTGITGTTIDPWGQGTMVTVSS
VL: DIQMTQSPSSLSASVGDRVTITCRASQSISSYLNWYQQKPGKAPKLLIYDASSLESGVPSRFSGSGSGTEFTLTISSLQPDDFAVYYCQQYNNWPQTFGQGTKVEIK
notes: fully human, from phage display, scFv converted to IgG; kappa
A word on the Kd: it is a measure of binding affinity in units of concentration. In general, EC50 refers to the concentration giving half of the maximal effect. A word on the koff: it is a measure of how fast the partners let go of each other. As a reminder, the kon is a measure of how fast the partners come together. On to B1, for which the Kd in experiment [1] came out at 0.77 nM. Further, the EC50 in [2] was 7.75 nM; in experiment [3], 29 nM; in [5] it was 0.53 µg/mL and 3.5 nM. In addition, the binding result in experiment [4] is “no binding (tested: 300 nM)”. Further, the koff in experiment [6] amounted to 0.000289 s⁻¹. Further, in experiment [6], the kon is 374000 M⁻¹ s⁻¹.

B2: 9-E16 (antibody, V domains shown)
VH: EVQLQQSGPELVKPGASVKISCKASGYTFTDYYMHWVKQKPGQGLEWIGEIYPGSGNPYYNEKFKGKATLTADKSSSSAYMQLSSLTSEDSAVYFCARTSYGRVGTGFAYWGQGTLVTVSA
VL: NFVMTQTPLSLPVSLGDQASISCRSSQSLLHSNGNTYLHWYLQKPGQSPKLLIYKVSNRFSGVPDRFSGSGSGTDFTLKINRVETEDLGIYFCSQSSHVPTFGAGTKLELK
notes: mouse hybridoma IgG
Broadly, the EC50 (read off the curve) is the concentration at which the effect is half-maximal. Turning to B2, in experiment [7], the EC50 was 42.8 µg/mL and 285 nM. In addition, the “EC50 (read off the curve)” value is roughly 6 ng/mL in experiment [8] and roughly 1 ng/mL in [9].

B3: 8-I14 (antibody, V domains shown)
VH: EVQLQQSGPELVKPGASVKKSCKASGYTFTDYYMHWVKQKPGQGLEWIGKIYPGSGNTHYNEKFKGKATLTADKSSSTAYMQLSSLTSEDSAVYFCATNYYGYRAMNYWGQGSSVTVSS
VL: DIHLTQSPSSLSASLGERISLTCRASQDIYISLNWFQQKPDGTIKLLIYGTSSLDSGVPKRFSGSRSGSDYSLTISSLESEDFADYYCLQYASSPYTFGGGTKLEIK
notes: mouse hybridoma IgG; also called 8-l14; 8114
In the case of B3, the EC50 in experiment [7] was 1.22 µg/mL and 8.1 nM. Besides, the “EC50 (read off the curve)” value in experiment [8] was roughly 6 ng/mL; in [9] it was roughly 0.2 ng/mL. Also, in experiment [10], the binding result is on record as “no binding (tested: 1 µg/mL)”.

B4: 8-P20 (antibody, V domains shown)
VH: KVMLVESGGALVKPGGSLKLSCVASGFTFSNYAMSWVRQTPEKRLEWVATISSGGYYTYYPDSVKGRFTISRDNARNTLFLQMSSLRSEDTAMFYCAREDDYGRYSYTMDYWGQGTSVTVSS
VL: DVVMTQTPLSLPVSLGDQVSISCRCSQSLVHSNGNTYLHWYLQKPGQSPQLLIYKISNRFSGVPDRFSGSGSGTDFTLKISRVEAEDLGVYFCSQSTHVPYTFGGGTELEIK
notes: mouse hybridoma IgG
As to B4, the 50% effective concentration (EC50) in [7] was 0.12 µg/mL and 0.8 nM. Also, the binding result in experiment [8] and in experiment [10] was “no binding (tested: 1 µg/mL)” in each case. Further, in experiment [9], the “EC50 (read off the curve)” value was roughly 0.03 ng/mL.

B5: 8-J17 (antibody, V domains shown)
VH: QVQLQQSGAELAKPGASVKMSCKASGYTFTNYWMHWVKQRPGQGLEWIGYINPNNGYTEYNQRFKDKATLTADRSSTTAYMQLSSLTSEDSAVYYCARSDIITTDYWGQGTTLTVSS
VL: DVVMTQTPLSLPVSLGDQASISCRSSQSLVYSNGNTYLHWYLQKPGQSPKLLIYKVSNRFSGVPDRFSGSGSGTDFTLKISRVEAEDLGVYFCSQSTHVPWTFGGGTKLEIK
notes: mouse hybridoma IgG
On to B5, for which, in experiment [7], the EC50 is 0.33 µg/mL and 2.2 nM. Also, the binding result in experiment [8] and in experiment [10] was “no binding (tested: 1 µg/mL)” each time. For the same molecule, the “EC50 (read off the curve)” value in experiment [9] is roughly 0.1 ng/mL.

B6: 8-G15 (antibody, V domains shown)
VH: EVQLQQSGPELVKPGASVRISCKASGYTFTDYYIHWVKQKPGQGLECIGEIYPGTDNTYYSKKFRGKATLTADKSSDTAYMQLSSLTSEDSAVYFCARGDYYRGYFDVWGAGTTVTVSS
VL: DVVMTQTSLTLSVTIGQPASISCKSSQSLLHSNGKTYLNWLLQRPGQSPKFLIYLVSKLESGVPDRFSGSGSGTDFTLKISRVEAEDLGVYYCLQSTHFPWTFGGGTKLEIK
notes: mouse hybridoma IgG
Regarding B6, the EC50 in experiment [7] was 0.22 µg/mL and 1.5 nM. The binding result in [8] and in [10] was “no binding (tested: 1 µg/mL)” in each case. Besides, the “EC50 (read off the curve)” value in experiment [9] is roughly 0.03 ng/mL.

B7: 40G10H11 (antibody, V domains shown)
VH: AVQLVESGGGLVQPGRSLKLSCAASRITFTDYYMAWVRQAPTKGLEWVATISSDGGDTFYRDSVKGRFTISRDNAKSTLYLQMVSLRSEDTATYYCSTDRGAQFGYWGQGTLVTVSS
VL: DIQMTQSPSFLSASVGDRVSINCKASQNVHENLNWYQQKLGEAPKRLIYNTNNLQTGIPSRFSGSGSGADYTLTISSLQPEDFATYFCLQHNAFPYTFGPGTKLELK
notes: rat hybridoma mAb
As for B7, the binding result in experiment [11] is “no binding (tested: 2 µg/ml)”.

B8: 9-G05 (antibody, V domains shown)
VH: EVQLQQSGPELVKPGASVKIPCKASGYTFPDYNMDWVKQSHGKSLEWIGYINPDNGGTIYNQKFKGKATLTVDKSSSTAYMELRSLTSEDTAVYYCARLDSSGYGYYAMDYWGQGTSVTVSS
VL: DIVLTQSPASLAVSLGQRATISCRASESVDNYGISFMHWYQQKPGQPPKLLIYRASNLDSEIPARFSGSGSRTDFTLTIDPVETDDVATYYCQQSYKDPRTFGGGTKLEIK
notes: mouse hybridoma IgG
Regarding B8, the Kd in experiment [1] was found to be 2.85 nM. Besides, the concentration for a half-maximal effect (EC50) in experiment [2] was 187 nM; in experiment [7] it was 21 µg/mL and 140 nM. The “EC50 (read off the curve)” value is roughly 30 ng/mL in experiment [8], roughly 10 ng/mL in [9] and roughly 0.3 ng/mL in experiment [10]. Besides, the koff in experiment [6] worked out at 4.99e-05 s⁻¹. Further, the kon in experiment [6] amounted to 17500 M⁻¹ s⁻¹.
